These results are taken from PMC11173989.

This assay addresses tKeima (tetrameric large Stokes shift red fluorescent protein Keima) (Montipora sp.). Nature of the assay: SEC; gel filtration on Sephacryl S-100, 10 mM Tris-HCl (pH 8.0), 200 mM NaCl.

Broadly, the stoichiometry N is the number of molecules, sites or subunits per partner or assembly. In the case of “tKeima (tetrameric large Stokes shift red fluorescent protein Keima)”, the stoichiometry N is 4.
